# Results as given in the supplement of paper PMC10567573.
# B1: RHOBTB3 (parent)
# chain: VSHVFMLLFNVKSPTDIQDSSIIR
# B2: KLHDC10 (parent)
# chain: PSLLELAWEKLLAAFPNLANLSRT
# Variants of: B1
# Assay: protein stability index of a GFP-peptide fusion (GPS, HEK-293T) (PSI 1-6); higher = more stable
# Conditions: c terminus: a fixed tail appended
# 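Further: lentivirally expressed fusions sorted by FACS into six bins by GFP to DsRed ratio, PSI derived from sequencing read proportions per bin multiplied by bin number.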
row,Variant,protein stability index
1,VSHVFMLLFNVKSPTDIQDSSIIG [R24G],3.07
2,VSHVFMLLFNVKSPTDIQDSSIIH [R24H],3.13
3,VSHVFMLLFNVKSPTDIQDSSIIK [R24K],3.56
4,VSHVFMLLFNVKSPTDIQDSSIIL [R24L],2.66
5,VSHVFMLLFNVKSPTDIQDSSIIN [R24N],3.13
6,VSHVFMLLFNVKSPTDIQDSSIIQ [R24Q],4.67
7,VSHVFMLLFNVKSPTDIQDSSIIS [R24S],3.05
8,VSHVFMLLFNVKSPTDIQDSSIIT [R24T],3.31
9,VSHVFMLLFNVKSPTDIQDSSIIV [R24V],3.67
10,VSHVFMLLFNVKSPTDIQDSSIIW [R24W],4.43
11,VSHVFMLLFNVKSPTDIQDSSIIY [R24Y],2.58

# Variants of: B2
# Assay: as above
# Conditions: c terminus: a fixed tail appended
row,Variant,protein stability index
1,PSLLELAWEKLLAAFPNLACLSRT [N20C],2.68
2,PSLLELAWEKLLAAFPNLWNLSRT [A19W],1.57
3,PSLLELAWEKLLAAFPNLAELSRT [N20E],2.25
4,PSLLELAWEKLLAAFCNLANLSRT [P16C],2.23
5,PSLLELAWQKLLAAFPNLANLSRT [E9Q],2.34
6,PSLLELAWEKLLAAFPNHANLSRT [L18H],1.84
7,LSLLELAWEKLLAAFPNLANLSRT [P1L],2.23
8,PSLLELAWEKLLAAFPNKANLSRT [L18K],1.78
9,PSLLELIWEKLLAAFPNLANLSRT [A7I],1.97
10,PSLLELAWEKMLAAFPNLANLSRT [L11M],1.6
11,RSLLELAWEKLLAAFPNLANLSRT [P1R],2.12
12,PSLLELASEKLLAAFPNLANLSRT [W8S],2.24
13,PSLLELAWEKLLAAFPNLANLSTT [R23T],2.22
14,PSLLELAWEDLLAAFPNLANLSRT [K10D],1.84
15,PSLLELAWEKLLAAFPNPANLSRT [L18P],2.15
16,PSLLELAWNKLLAAFPNLANLSRT [E9N],2.62
17,PSLLELAWEKLLAAFPNLANDSRT [L21D],2.33
18,PSLLETAWEKLLAAFPNLANLSRT [L6T],2.23
19,PFLLELAWEKLLAAFPNLANLSRT [S2F],2.41
20,PSLLELAWEKLLAAFWNLANLSRT [P16W],2.35
21,PSLLELAWEKLLAAFPFLANLSRT [N17F],2.25

row,Variant,protein stability index
1,PSLLELAGEKLLAAFPNLANLSRT [W8G],2.78
2,PSLLELAWEKLLAAFPNLANLFRT [S22F],2.46
3,PSLLELAWEKLLYAFPNLANLSRT [A13Y],1.85
4,PSLLELAWEKLLAAFPNLANLSRM [T24M],2.17
5,PSLLELAWEKLLAAFPNQANLSRT [L18Q],2.35
6,PSLLILAWEKLLAAFPNLANLSRT [E5I],1.8
7,PSLLELAWEKLLAAFPNLHNLSRT [A19H],1.93
8,PSLLELAWEKLLAGFPNLANLSRT [A14G],1.81
9,PSLLELAWEKLPAAFPNLANLSRT [L12P],2.17
10,PSLLELAWEKLLAWFPNLANLSRT [A14W],3.3
11,PSLLELAWEKLLAAFPNGANLSRT [L18G],2.56
12,PSLLELAWEKGLAAFPNLANLSRT [L11G],1.69
13,PSLLELAWGKLLAAFPNLANLSRT [E9G],2
14,PSLLELAWEKLLAAFPNLANLSMT [R23M],1.87
15,PHLLELAWEKLLAAFPNLANLSRT [S2H],1.78
16,PSLLELAWEKLLAAFPNLANLSRD [T24D],2.79
17,CSLLELAWEKLLAAFPNLANLSRT [P1C],1.86
18,PSLLESAWEKLLAAFPNLANLSRT [L6S],2.28
19,PSLLELAWEFLLAAFPNLANLSRT [K10F],2.25
20,PSTLELAWEKLLAAFPNLANLSRT [L3T],1.97
21,PSLCELAWEKLLAAFPNLANLSRT [L4C],3.05

row,Variant,protein stability index
1,PSLLELAWEKLLAAFPNLANNSRT [L21N],2.52
2,PTLLELAWEKLLAAFPNLANLSRT [S2T],1.96
3,PSLLELAWEKILAAFPNLANLSRT [L11I],2.23
4,PSLLELAWEKLLAAFPNLANLSRL [T24L],1.85
5,PSLLELAWEKRLAAFPNLANLSRT [L11R],2.07
6,PSLLELAWEKLLAAFPGLANLSRT [N17G],3.66
7,PSLLELAWEKLLAAHPNLANLSRT [F15H],2.06
8,PSLLELAWEILLAAFPNLANLSRT [K10I],1.7
9,PSLLFLAWEKLLAAFPNLANLSRT [E5F],2.06
10,PSLLELAWEKLLAAFPNCANLSRT [L18C],2.23
11,PSLLEIAWEKLLAAFPNLANLSRT [L6I],2.06
12,PSRLELAWEKLLAAFPNLANLSRT [L3R],2.06
13,PSLLELAWEKYLAAFPNLANLSRT [L11Y],2.19
14,PSLLELAWIKLLAAFPNLANLSRT [E9I],2.07
15,PSLLELAWEKLLAAFPNLANLCRT [S22C],2.34
16,PSLLELAWEKLLAAFPNRANLSRT [L18R],1.73
17,PSLLELATEKLLAAFPNLANLSRT [W8T],1.94
18,PSLLELAWEKLLAAFPNFANLSRT [L18F],2.52
19,PSLLELAWEKLLAAFPNLAYLSRT [N20Y],2.22
20,PSLLELAWEKLLAAFPNLANLSRA [T24A],2.34
21,PSLLELAWEKLLAAFPNLANLIRT [S22I],2.28

row,Variant,protein stability index
1,PSLLELAWEKLLAAFPNLANLSPT [R23P],1.99
2,PSILELAWEKLLAAFPNLANLSRT [L3I],1.56
3,PSLLELAWEKLHAAFPNLANLSRT [L12H],2.33
4,PSLLELAWEKLLAAFPNLANESRT [L21E],1.82
5,PSLLELAWEKLLAAEPNLANLSRT [F15E],2.36
6,PSLLELAWEKTLAAFPNLANLSRT [L11T],1.92
7,PSLLELAWLKLLAAFPNLANLSRT [E9L],2.29
8,PSYLELAWEKLLAAFPNLANLSRT [L3Y],1.86
9,PSLLELAWEKLLAAFPNLAMLSRT [N20M],3.12
10,PSLLELALEKLLAAFPNLANLSRT [W8L],1.58
11,PSLLELAWEKLLAAFPNLANLSET [R23E],1.87
12,PSSLELAWEKLLAAFPNLANLSRT [L3S],1.7
13,PSLLELAWEKLLAAFPNLANLSRF [T24F],2.06
14,PSLLELAWEKLGAAFPNLANLSRT [L12G],2.66
15,PSLLELAWEVLLAAFPNLANLSRT [K10V],2.07
16,PSLLELAWEKLLAAFPNLLNLSRT [A19L],1.8
17,PSLLELAWEKLLAAFPNLANLMRT [S22M],2.02
18,PSLLELSWEKLLAAFPNLANLSRT [A7S],2.58
19,PSLLELAWAKLLAAFPNLANLSRT [E9A],1.84
20,PSLLELAWELLLAAFPNLANLSRT [K10L],2.42
